In the supplement of paper PMC3353916:
± gives the standard deviation of the averaged measurements.

Tested on: Sindbis virus TE/5'2J-GFP
Assay: percent infected (GFP+ in RFP+ ISG-expressing cells); higher = more infection (less antiviral activity)
Experimental: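 Confirmatory testing of 87 ISGs. Triplicate wells of BHK/HA-Zeo (control) or BHK/NZAP-Zeo (ZAP) cells were transduced with lentiviruses co-expressing a human ISG plus TagRFP, then infected 48 h later with SINV TE/5'2J-GFP (moi 5). The % GFP+ cells among RFP+ cells was measured by flow cytometry at 8 h post infection. Fluc lentivirus served as control. Three independent experiments.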

[1] = experiment: confirmatory screen 1, BHK/HA-Zeo (control)
[2] = experiment: confirmatory screen 1, BHK/NZAP-Zeo (ZAP)
[3] = experiment: confirmatory screen 2, BHK/HA-Zeo (control)
[4] = experiment: confirmatory screen 2, BHK/NZAP-Zeo (ZAP)
[5] = experiment: confirmatory screen 3, BHK/HA-Zeo (control)
[6] = experiment: confirmatory screen 3, BHK/NZAP-Zeo (ZAP)
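Further: Interferon-defective BHK-21 derivatives, ZAP line overexpressing the rat ZAP N-terminal zinc finger domain fused to Zeocin resistance, GFP scored within live singlet TagRFP+ cells.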

| Substance | percent infected [1] [%] | percent infected [2] [%] | percent infected [3] [%] | percent infected [4] [%] | percent infected [5] [%] | percent infected [6] [%] |
| --- | --- | --- | --- | --- | --- | --- |
| MEKLLCFLVLTSLSHAFGQTDMSRKAFVFPKESDTSYVSLKAPLTKPLKAFTVCLHFYTELSSTRGYSIFSYATKRQDNEILIFWSKDIGYSFTVGGSEILFEVPEVTVAPVHICTSWESASGIVEFWVDGKPRVRKSLKKGYTVGAEASIILGQEQDSFGGNFEGSQSLVGDIGNVNMWDFVLSPDEINTIYLGGPFSPNVLNWRALKYEVQGEVFTKPQLWP [CRP] | 94.7 ± 1.9 | 71.6 ± 4 | 95.07 ± 0.27 | 94.33 ± 0.72 | 89.4 ± 1.5 | 92.68 ± 0.15 |
| MEQHFLGCVKRAWDSAEVAPEPQPPPIVSSEDRGPWPLPLYPVLGEYSLDSCDLGLLSSPCWRLPGVYWQNGLSPGVQSTLEPSTAKPTEFSWPGTQKQQEAPVEEVGQAEEPDRLRLQQLPWSSPLHPWDRQQDTEVCDSGCLLERRHPPALQPWRHLPGFSDCLEWILRVGFAAFSVLWACCSRICGAKQP [C5orf39] | 76.7 ± 4.1 | 9.13 ± 2.2 | 93.67 ± 0.59 | 89.88 ± 0.14 | 75.4 ± 1.5 | 50.1 ± 3 |
| MTLNNVTMRQGTVGMQPQQQRWSIPADGRHLMVQKEPHQYSHRNRHSATPEDHCRRSWSSDSTDSVISSESGNTYYRVVLIGEQGVGKSTLANIFAGVHDSMDSDCEVLGEDTYERTLMVDGESATIILLDMWENKGENEWLHDHCMQVGDAYLIVYSITDRASFEKASELRIQLRRARQTEDIPIILVGNKSDLVRCREVSVSEGRACAVVFDCKFIETSAAVQHNVKELFEGIVRQVRLRRDSKEKNERRLAYQKRKESMPRKARRFWGKIVAKNNKNMAFKLKSKSCHDLSVL [GEM] | 91.5 ± 3.5 | 65 ± 4 | 94.19 ± 0.65 | 94.64 ± 0.36 | 94.39 ± 0.59 | 93.55 ± 0.12 |
| MASVAVDPQPSVVTRVVNLPLVSSTYDLMSSAYLSTKDQYPYLKSVCEMAENGVKTITSVAMTSALPIIQKLEPQIAVANTYACKGLDRIEERLPILNQPSTQIVANAKGAVTGAKDAVTTTVTGAKDSVASTITGVMDKTKGAVTGSVEKTKSVVSGSINTVLGSRMMQLVSSGVENALTKSELLVEQYLPLTEEELEKEAKKVEGFDLVQKPSYYVRLGSLSTKLHSRAYQQALSRVKEAKQKSQQTISQLHSTVHLIEFARKNVYSANQKIQDAQDKLYLSWVEWKRSIGYDDTDESHCAEHIESRTLAIARNLTQQLQTTCHTLLSNIQGVPQNIQDQAKHMGVMAGDIYSVFRNAASFKEVSDSLLTSSKGQLQKMKESLDDVMDYLVNNTPLNWLVGPFYPQLTESQNAQDQGAEMDKSSQETQRSEHKTH [ADFP] | 91.4 ± 2 | 68 ± 2.8 | 96.84 ± 0.14 | 95.665 ± 0.052 | 88.3 ± 0.9 | 89.1 ± 1.9 |
| MKVSAAALAVILIATALCAPASASPYSSDTTPCCFAYIARPLPRAHIKEYFYTSGKCSNPAVVFVTRKNRQVCANPEKKWVREYINSLEMS [CCL5] | 95.946 ± 0.068 | 69.5 ± 4.5 | 94.757 ± 0.09 | 93.5 ± 1.5 | 92.85 ± 0.85 | 93.25 ± 0.49 |
| MSSWSRQRPKSPGGIQPHVSRTLFLLLLLAASAWGVTLSPKDCQVFRSDHGSSISCQPPAEIPGYLPADTVHLAVEFFNLTHLPANLLQGASKLQELHLSSNGLESLSPEFLRPVPQLRVLDLTRNALTGLPPGLFQASATLDTLVLKENQLEVLEVSWLHGLKALGHLDLSGNRLRKLPPGLLANFTLLRTLDLGENQLETLPPDLLRGPLQLERLHLEGNKLQVLGKDLLLPQPDLRYLFLNGNKLARVAAGAFQGLRQLDMLDLSNNSLASVPEGLWASLGQPNWDMRDGFDISGNPWICDQNLSDLYRWLQAQKDKMFSQNDTRCAGPEAVKGQTLLAVAKSQ [LRG1] | 95.1 ± 1 | 68.2 ± 4.8 | 95.09 ± 0.35 | 94.92 ± 0.53 | 93.09 ± 0.65 | 94.47 ± 0.18 |
| MDAPHSKAALDSINELPENILLELFTHVPARQLLLNCRLVCSLWRDLIDLMTLWKRKCLREGFITKDWDQPVADWKIFYFLRSLHRNLLRNPCAEEDMFAWQIDFNGGDRWKVESLPGAHGTDFPDPKVKKYFVTSYEMCLKSQLVDLVAEGYWEELLDTFRPDIVVKDWFAARADCGCTYQLKVQLASADYFVLASFEPPPVTIQQWNNATWTEVSYTFSDYPRGVRYILFQHGGRDTQYWAGWYGPRVTNSSIVVSPKMTRNQASSEAQPGQKHGQEEAAQSPYRAVVQIF [FBXO6] | 95.42 ± 0.3 | 65.4 ± 1.8 | 94.14 ± 0.54 | 94.48 ± 0.2 | 90.9 ± 1.1 | 91.46 ± 0.7 |
| MDENNGLLLLELNPPNPWDLQPRSPEELAFGEVQITYLTHACMDLKLGDKRMVFDPWLIGPAFARGWWLLHEPPSDWLERLCQADLIYISHLHSDHLSYPTLKKLAGRRPDIPIYVGNTERPVFWNLNQSGVQLTNINVVPFGIWQQVDKNLRFMILMDGVHPEMDTCIIVEYKGHKILNIVDCTRPNGGRLPMKVALMMSDFAGGASGFPMTFSGGKFTEEWKAQFIKTERKKLLNYKARLVKNLQPRIYCPFAGYFVESHPSDKYIKETNTKNDPNELNNLIKKNSDVITWTPRPGATLDLGRMLKDRTDSKGIIEPPEGTKIYKDSWDFEPYLEILNAALGDEIFLHSSWIKEYFTWAGFKDYNLVVRMIETDEDFNPFPGGYDYLVDFLDLSFPKERPQREHPYEEIHSRVDVIRHVVKNGLLWDELYIGFQTRLQRDPDIYHHLFWNHFQIKLPLTPPNWKSFLMCCEQNGPVILQFSTERTNEPNRNKFSVENKA [CMAH] | 94.7 ± 1.2 | 75.3 ± 1.9 | 95.1 ± 0.29 | 94.26 ± 0.25 | 93.1 ± 0.62 | 92.979 ± 0.089 |
| MKTFTWTLGVLFFLLVDTGHCRGGQFKIKKINQRRYPRATDGKEEAKKCAYTFLVPEQRITGPICVNTKGQDASTIKDMITRMDLENLKDVLSRQKREIDVLQLVVDVDGNIVNEVKLLRKESRNMNSRVTQLYMQLLHEIIRKRDNSLELSQLENKILNVTTEMLKMATRYRELEVKYASLTDLVNNQSVMITLLEEQCLRIFSRQDTHVSPPLVQVVPQHIPNSQQYTPGLLGGNEIQRDPGYPRDLMPPPDLATSPTKSPFKIPPVTFINEGPFKDCQQAKEAGHSVSGIYMIKPENSNGPMQLWCENSLDPGGWTVIQKRTDGSVNFFRNWENYKKGFGNIDGEYWLGLENIYMLSNQDNYKLLIELEDWSDKKVYAEYSSFRLEPESEFYRLRLGTYQGNAGDSMMWHNGKQFTTLDRDKDMYAGNCAHFHKGGWWYNACAHSNLNGVWYRGGHYRSKHQDGIFWAEYRGGSYSLRAVQMMIKPID [ANGPTL1] | 94.8 ± 1.7 | 76.2 ± 1.6 | 95.66 ± 0.28 | 94.3 ± 2.2 | 94.73 ± 0.38 | 94.71 ± 0.28 |
| MALAPERAAPRVLFGEWLLGEISSGCYEGLQWLDEARTCFRVPWKHFARKDLSEADARIFKAWAVARGRWPPSSRGGGPPPEAETAERAGWKTNFRCALRSTRRFVMLRDNSGDPADPHKVYALSRELCWREGPGTDQTEAEAPAAVPPPQGGPPGPFLAHTHAGLQAPGPLPAPAGDKGDLLLQAVQQSCLADHLLTASWGADPVPTKAPGEGQEGLPLTGACAGGPGLPAGELYGWAVETTPSPGPQPAALTTGEAAAPESPHQAEPYLSPSPSACTAVQEPSPGALDVTIMYKGRTVLQKVVGHPSCTFLYGPPDPAVRATDPQQVAFPSPAELPDQKQLRYTEELLRHVAPGLHLELRGPQLWARRMGKCKVYWEVGGPPGSASPSTPACLLPRNCDTPIFDFRVFFQELVEFRARQRRGSPRYTIYLGFGQDLSAGRPKEKSLVLVKLEPWLCRVHLEGTQREGVSSLDSSSLSLCLSSANSLYDDIECFLMELEQPA [IRF7] | 72 ± 5.6 | 7.66 ± 2.9 | 95.59 ± 0.13 | 92 ± 0.75 | 69.3 ± 3.4 | 32.8 ± 18 |
| MPGKKARKNAQPSPARAPAELEVECATQLRRFGDKLNFRQKLLNLISKLFCSGT [PMAIP1] | 94.9 ± 1.1 | 87.9 ± 2.1 | 95.11 ± 0.24 | 93.22 ± 0.27 | 92.03 ± 0.31 | 92.36 ± 0.16 |
| MLLRSKPALPPPLMLLLLGPLGPLSPGALPRPAQAQDVVDLDFFTQEPLHLVSPSFLSVTIDANLATDPRFLILLGSPKLRTLARGLSPAYLRFGGTKTDFLIFDPKKESTFEERSYWQSQVNQDICKYGSIPPDVEEKLRLEWPYQEQLLLREHYQKKFKNSTYSRSSVDVLYTFANCSGLDLIFGLNALLRTADLQWNSSNAQLLLDYCSSKGYNISWELGNEPNSFLKKADIFINGSQLGEDFIQLHKLLRKSTFKNAKLYGPDVGQPRRKTAKMLKSFLKAGGEVIDSVTWHHYYLNGRTATKEDFLNPDVLDIFISSVQKVFQVVESTRPGKKVWLGETSSAYGGGAPLLSDTFAAGFMWLDKLGLSARMGIEVVMRQVFFGAGNYHLVDENFDPLPDYWLSLLFKKLVGTKVLMASVQGSKRRKLRVYLHCTNTDNPRYKEGDLTLYAINLHNVTKYLRLPYPFSNKQVDKYLLRPLGPHGLLSKSVQLNGLTLKMVDDQTLPPLMEKPLRPGSSLGLPAFSYSFFVIRNAKVAACI [HPSE] | 97.15 ± 0.33 | 79.82 ± 0.76 | 96 ± 1.1 | 95.86 ± 0.27 | 90.1 ± 0.52 | 90.5 ± 1.7 |
| MQEGELAISPISPVAAMPPLGTHVQARCEAQINLLGEGGICKLPGRLRIQPALWSREDVLHWLRWAEQEYSLPCTAEHGFEMNGRALCILTKDDFRHRAPSSGDVLYELLQYIKTQRRALVCGPFFGGIFRLKTPTQHSPVPPEEVTGPSQMDTRRGHLLQPPDPGLTSNFGHLDDPGLARWTPGKEESLNLCHCAELGCRTQGVCSFPAMPQAPIDGRIADCRLLWDYVYQLLLDTRYEPYIKWEDKDAKIFRVVDPNGLARLWGNHKNRVNMTYEKMSRALRHYYKLNIIKKEPGQKLLFRFLKTPGKMVQDKHSHLEPLESQEQDRIEFKDKRPEISP [ETV7] | 95.31 ± 0.45 | 67.2 ± 4 | 95.82 ± 0.54 | 95.28 ± 0.2 | 93 ± 1.6 | 93.56 ± 0.55 |
| ABTB2 | 94.03 ± 0.73 | 63.5 ± 5.5 | 94.02 ± 0.29 | 95.3 ± 0.29 | 93.9 ± 2 | 94.69 ± 0.42 |
